According to the supplement of paper PMC7125110:
± gives the standard error. Variants at the floor of the assay were thinned out.

B1: glmS ribozyme (parent)
chain: AUAAAAGCGCCAGAACUACAGAAAUGUAGUUGACGAGGAGGAGGUUUAUCGAAUUUUCGGCGGAUGCCUCCAAA

Variants of: B1
Experiment: self-cleavage kobs at 640 uM GlcN6P; higher = faster cleavage; RNA array
Conditions: with glucosamine-6-phosphate
Procedure, shortened: (§1)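 E. coli RNA polymerase transcribed barcoded ribozyme variants in situ on sequenced MiSeq chips, which were tracked via a hybridised Cy3 probe at 37 °C. Tiles were imaged over ~14 h after glucosamine-6-phosphate (40 μM to 10 mM) in HEPES/KCl/Mg(OAc)2 buffer was flowed in. Normalised per-tile medians were fit to one- or two-exponential decays for kobs, and kcat and KM came from weighted Michaelis–Menten fits.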

Variant | self-cleavage kobs at 640 uM GlcN6P [s⁻¹]
U54A U65A C68G | 5.85e-05 ± 2.8e-05
U55A C67A C68U | 8.42e-05 ± 2.6e-05
A48G A53G C67G | 6.02e-05 ± 2.2e-05
U47C U49G C50U | < 1e-05
G51U U55C | < 1e-05
G44A U46C C68A | < 1e-05
U49C C58U G66A | < 1e-05
U45G G66C | 0.000414 ± 0.00017
G44C C58G C61G | < 1e-05
U47G C70U C71G | 0.000118 ± 2.3e-05
C67A U69A | 0.000234 ± 4.1e-05
U54G G66C | 0.000405 ± 6.3e-05
U56C A64C | < 1e-05
A53U U55C U65A | 0.00055 ± 9.7e-05
U46A U65A | 0.000776 ± 0.0002
C58A C61G C68U | 0.000169 ± 7.3e-05
C61G G62A | < 1e-05
U46G C50U C68G | 5.83e-05 ± 2.6e-05
U45G U46G U55C G63A | < 1e-05
U55A U65C C68U | 0.000206 ± 8.7e-05
A52G U56G | 0.000309 ± 5.9e-05
U55A U56A | 0.00306 ± 0.00092
U54A G59U C68U C70G | < 1e-05

Variant | self-cleavage kobs at 640 uM GlcN6P [s⁻¹]
G51U U56A G63U | < 1e-05
C61G A64G C71G | 0.000141 ± 3.7e-05
U57G C58G C67G | 0.000157 ± 5.5e-05
A48U U55G C71A | 2.8e-05 ± 1.3e-05
G51A U54C U55G | < 1e-05
U46C U69G | 8.03e-05 ± 1.7e-05
U55G U56A G60U C71U | < 1e-05
A53G G60A C61G | < 1e-05
U45A U49C | < 1e-05
G44A U47G | 5.51e-05 ± 2.3e-05
A53G U54A G63U | < 1e-05
G44C A52G U54G | < 1e-05
C50A A52C C61A C68U | 0.000706 ± 0.00019
G51C C67G C70U | < 1e-05
G59U G62A | < 1e-05
U47G G59A C67G | 0.000579 ± 0.00015
U46G C67U C71A | 6.72e-05 ± 2e-05
U46A U55C | 0.00095 ± 0.00025
C61U G66C | < 1e-05
U46G A53G G66U | 7.95e-05 ± 2e-05
A64C C68A C70G | < 1e-05
G66C C68U C70U | 0.000337 ± 9.2e-05
U56G U57A | 6.17e-05 ± 1e-05

Variant | self-cleavage kobs at 640 uM GlcN6P [s⁻¹]
C50G A53C U54A U69A | 0.000691 ± 0.00026
A52C U56C C67U | < 1e-05
U49C G63C C67G C68G | < 1e-05
U47C A52G G66A | 5.64e-05 ± 1.2e-05
U55A G63U C70G | 6.74e-05 ± 2.6e-05
G44A U46C U49C U54G C67G | < 1e-05
G43U G62C C67A | < 1e-05
U45G U49C | < 1e-05
U45C C50A U56C | < 1e-05
A48U G59A C67U | < 1e-05
A53U G62U | < 1e-05
U46A C68G C71G | 0.00075 ± 0.00031
G44U G60C G62U | < 1e-05
C50G C61U C67U | 0.000213 ± 4.4e-05
A52C A53U U55A U65A | < 1e-05
U47A G63A | < 1e-05
U55G G63U U65G | < 1e-05
A48U U49A C68A | < 1e-05
U47A G60C U69C | 0.00785 ± 0.0036
U47G G63U C68G | 6.95e-05 ± 3.1e-05
C50A G51U | < 1e-05

Variants of: B1
Experiment: self-cleavage kobs at 2500 uM GlcN6P; higher = faster cleavage; RNA array
Conditions: with glucosamine-6-phosphate
Procedure, shortened: as §1

Variant | self-cleavage kobs at 2500 uM GlcN6P [s⁻¹]
U54A U65A C68G | 0.000194 ± 6.9e-05
A6C C8G A14C A48C | < 1e-05
A5U A64U | 8.83e-05 ± 2.8e-05
A6U C16G A36U G41U G43C | < 1e-05
G7U G35U U54C G60A C67G C68A | 5.54e-05 ± 9.5e-06
A6U G9A C61A | < 1e-05
G7A C8A U56G | < 1e-05
U55A C67A C68U | 0.000218 ± 4e-05
A6G A14U U54A | 0.000117 ± 2.9e-05
A48G A53G C67G | 6.1e-05 ± 2.3e-05
U47C U49G C50U | < 1e-05
A6G C16G U54C C61A | < 1e-05
G44A U46C C68A | < 1e-05
U45G G66C | 0.000927 ± 0.00042
A6G C61A C71U | < 1e-05
A6G G59U C61U | < 1e-05
A6U G13U G44C | < 1e-05
C67A U69A | 0.000247 ± 5.8e-05
A53U U55C U65A | 0.000947 ± 0.00018
A6G A42G C67U C70U | < 1e-05
C61G G62A | < 1e-05
G7A G9U | < 1e-05

Variant | self-cleavage kobs at 2500 uM GlcN6P [s⁻¹]
U45G U46G U55C G63A | < 1e-05
G7C C10A C16G C61A | < 1e-05
A6G A12G A33U A36C | < 1e-05
U55A U65C C68U | 0.000114 ± 3.5e-05
A52G U56G | 0.000536 ± 0.00011
U55A U56A | 0.00346 ± 0.0013
G7A A14C U30A | < 1e-05
A6G G37A G66U C70U | < 1e-05
G51U U56A G63U | < 1e-05
C8A A12C A36U G59U | < 1e-05
G7U G35U G37C U46C C68A | < 1e-05
U57G C58G C67G | 6.13e-05 ± 2.6e-05
A6G A36C C58A | < 1e-05
U46C U69G | 0.000153 ± 2.7e-05
G7C A14C G35C U57G | < 1e-05
G7C A15U U31C | < 1e-05
G7A U30A G60C | < 1e-05
A6G G40A A48G A53G C67U | < 1e-05
G44A U47G | 0.00011 ± 3.2e-05
G7U A53G U57A | < 1e-05
C8A C58A A64C | < 1e-05
A53G U54A G63U | < 1e-05

Variant | self-cleavage kobs at 2500 uM GlcN6P [s⁻¹]
A6U G44A U56A | < 1e-05
G44C A52G U54G | < 1e-05
C8A A33C A42G U65G | < 1e-05
G51C C67G C70U | < 1e-05
G7C G44C C50U G62A C67U C70U | < 1e-05
A6G U30C C34U | < 1e-05
G7A C8G G63U | < 1e-05
A6G A14G G40A | 3.86e-05 ± 1.1e-05
A6C A12G G37A | < 1e-05
A6U U31G A36U | < 1e-05
U46A U55C | 0.00269 ± 0.00043
C61U G66C | < 1e-05
A6U U31G G41U | < 1e-05
A6U A14U A33G C61U | < 1e-05
U46G A53G G66U | 0.000148 ± 5.2e-05
A64C C68A C70G | < 1e-05
A6G G32C C67U C71G | < 1e-05
C8A C16G G38A A64G C68A | < 1e-05
U56G U57A | 0.000102 ± 1.2e-05
C50G A53C U54A U69A | 0.000283 ± 0.00011
A6C A14C A15U A42G | < 1e-05
A6U U56A G63U | < 1e-05

Variant | self-cleavage kobs at 2500 uM GlcN6P [s⁻¹]
A5U C10G A42U U57C C70A | < 1e-05
A6G A12C U56G | 5.25e-05 ± 2.1e-05
A6C A15U G35A G40U | < 1e-05
A6U A14U U31C A42G A52C A64C | < 1e-05
A6G G40U A52G A53U | < 1e-05
U47C A52G G66A | 0.000112 ± 2.4e-05
A1U A15G A36U | < 1e-05
A6U G41U G59A G62C | < 1e-05
A6G G35U G51U C58U | < 1e-05
G7U G9A C67A | < 1e-05
G44A U46C U49C U54G C67G | < 1e-05
A6G A12U C67U | 0.000919 ± 0.00023
C8A G13C A36G U56G C70U | < 1e-05
A6G G43C C58G | < 1e-05
G7U U30G A33U G44C | < 1e-05
G43U G62C C67A | < 1e-05
A6C A48G A52G | < 1e-05
A6U A14G U69G | 0.000146 ± 3.5e-05
A6C A15G U30C | 2.76e-05 ± 1.3e-05
A6G A33G A42U G60U | < 1e-05
A6C G38A G62U | < 1e-05
A48U G59A C67U | < 1e-05

Variant | self-cleavage kobs at 2500 uM GlcN6P [s⁻¹]
A53U G62U | < 1e-05
G44U G60C G62U | < 1e-05
A52C A53U U55A U65A | < 1e-05
U55G G63U U65G | < 1e-05
A6C G13C G29A U30G G32U A33G C34A C50U | < 1e-05
G7A A12U U31G C70A | < 1e-05
A6C U55G C71U | 6.13e-05 ± 2e-05
A6U U47A U57C | < 1e-05
G7U G32A A48G U54A | < 1e-05
G7U A12C C16U G60A | < 1e-05
A6G G13C U65A U69C | < 1e-05
A6U G37U G40U | < 1e-05
G7U C11G G13A A14U G32U A33C G37A G40A U47C | < 1e-05
C8A C16U A36C A42U | < 1e-05
A6C G40A U46G G51U | < 1e-05
A6U G44A A48U G63A U65C | < 1e-05
G7C U46A A52C | < 1e-05
A6U G32U U57G | < 1e-05
G7A G9A A14C G44A | < 1e-05
A6U U30A A33C U45G C58A | < 1e-05

Variants of: B1
Experiment: self-cleavage kobs at 10000 uM GlcN6P; higher = faster cleavage; RNA array
Conditions: with glucosamine-6-phosphate
Procedure, shortened: as §1

Variant | self-cleavage kobs at 10000 uM GlcN6P [s⁻¹]
U55A C67A C68U | 0.000108 ± 2.8e-05
G51U U55C | < 1e-05
U45G G66C | 0.00369 ± 0.00067
U54G G66C | 0.00079 ± 0.00012
A53U U55C U65A | 0.00137 ± 0.00021
A52G U56G | 0.0014 ± 0.00025
U55A U56A | 0.0126 ± 0.0024
U57G C58G C67G | 3.89e-05 ± 1.9e-05
G7A U30A G60C | < 1e-05
U45A U49C | < 1e-05
G44A U47G | 0.000111 ± 2.2e-05
G59U G62A | < 1e-05
A6U U31G A36U | < 1e-05
U46A U55C | 0.0029 ± 0.00062
U56G U57A | 0.000326 ± 4.4e-05
A6G A12C U56G | 5.92e-05 ± 1.5e-05
G43U G62C C67A | < 1e-05
U45G U49C | < 1e-05
A53U G62U | < 1e-05
G44U G60C G62U | < 1e-05
C50A G51U | < 1e-05
